This is an account of results in paper PMC6255212, “Coupled molecular dynamics mediate long- and short-range epistasis between mutations that affect stability and aggregation kinetics” (Proceedings of the National Academy of Sciences of the …, 2018).

Numbering of substitutions follows the chain as printed. Numbers in names are those of the source.

Substrate in the data set: O=CCO
Kind of data set: steady-state enzyme kinetics. Format: biochemical, Escherichia coli. The following applies: 50 mM Li-HPA (lithium beta-hydroxypyruvate, saturating), 4-80 mM glycolaldehyde.

B1: Escherichia coli transketolase (TK) (Escherichia coli K-12; A282P/H192P/I365L) (protein)
chain: SSRKELANAIRALSMDAVQKAKSGHPGAPMGMADIAEVLWRDFLKHNPQNPSWADRDRFVLSNGHGSMLIYSLLHLTGYDLPMEELKNFRQLHSKTPGHPEVGYTAGVETTTGPLGQGIANAVGMAIAEKTLAAQFNRPGHDIVDHYTYAFMGDGCMMEGISHEVCSLAGTLKLGKLIAFYDDNGISIDGPVEGWFTDDTAMRFEAYGWHVIRDIDGHDAASIKRAVEEARAVTDKPSLLMCKTIIGFGSPNKAGTHDSHGAPLGDAEIALTREQLGWKYPPFEIPSEIYAQWDAKEAGQAKESAWNEKFAAYAKAYPQEAAEFTRRMKGEMPSDFDAKAKEFIAKLQANPAKIASRKASQNALEAFGPLLPEFLGGSADLAPSNLTLWSGSKAINEDAAGNYIHYGVREFGMTAIANGISLHGGFLPYTSTFLMFVEYARNAVRMAALMKQRQVMVYTHDSIGLGEDGPTHQPVEQVASLRVTPNMSTWRPCDQVESAVAWKYGVERQDGPTALILSRQNLAQQERTEEQLANIARGGYVLKDCAGQPELIFIATGSEVELAVAAYEKLTAEGVKARVVSMPSTDAFDKQDAAYRESVLPKAVTARVAVEAGIADYWYKYVGLNGAIVGMTTFGESAPAELLFEEFGFTVDNVVAKAKELL
notes: homodimer of 70- to 74-kDa monomers; holo enzyme with ThDP and Mg2+
For the protein B1, the Km is given as 19.5(2.1) mM and the kcat is given as 68.9(2.6) s-1.

B2: Escherichia coli transketolase (TK) (Escherichia coli K-12; A282P/G506A/H192P/I365L) (protein)
chain: B1 chain with G505A
notes: as for B1
Take B2: the Km is 22.7(2.2) mM and the kcat is recorded as 58.3(2.1) s-1.

B3: Escherichia coli transketolase (TK) (Escherichia coli K-12; A282P/G506A/H192P) (protein)
chain: B1 chain with L364I, G505A
notes: as for B1
Take B3: the Km is 20.2(1.5) mM and the kcat is on record as 54.3(1.4) s-1.
